Measured values published in PMC7719173.

Target: human TRAPPII complex (TRAPPC1, TRAPPC2, TRAPPC2L, TRAPPC3, TRAPPC4, TRAPPC5, TRAPPC6A, TRAPPC9, TRAPPC10) (human) (UniProt Q9Y5R8)

## Rab11 (from UniProt P62491 1-216) (natural protein)
  catalytic efficiency (kcat/Km) of TRAPPII-catalysed release of Mant-GDP from 4 µM Rab-His6 in solution, TRAPPII 19–300 nM: 2900 M⁻¹ s⁻¹
